Source: patent US20240200091A1, “USE OF PROTOPORPHYRINOGEN OXIDASE” (BEIJING DABEINONG BIOTECHNOLOGY CO., LTD., priority 2021, published 2024)

What was measured:
Type in all cases: in vivo
[1] = tested on: Arabidopsis thaliana T1 plants; test: saflufenacil tolerance of transgenic Arabidopsis thaliana T1 plants (spray, grade of pesticide damage); details: for The grade of pesticide damage/plant: grade 0 / The grade of pesticide damage/plant: grade 1 / The grade of pesticide damage/plant: grade 2 / The grade of pesticide damage/plant: grade 3: 7 DAT, number of plants of 24 per genotype, grades
From the text: (§1) The transformed Arabidopsis thaliana T1 plants were initially selected using glufosinate herbicide. The Arabidopsis thaliana T1 plants (PPO1A) into which the PPO1A nucleotide sequence was introduced, the Arabidopsis thaliana T1 plants (PPO2A) into which the PPO2A nucleotide sequence was introduced, the Arabidopsis thaliana T1 plants (PPO3A) into which the PPO3A nucleotide sequence was introduced, the Arabidopsis thaliana T1 plants (PPO4A) into which the PPO4A nucleotide sequence was introduced, the Arabidopsis thaliana T1 plants (PPO5A) into which the PPO5A nucleotide sequence was introduced, the Arabidopsis thaliana T1 plants (PPO6A) into which the PPO6A nucleotide sequence was introduced, the Arabidopsis thaliana T1 plants (PPO7A) into which the PPO7A nucleotide sequence was introduced, the Arabidopsis thaliana T1 plants (PPO8A) into which the PPO8A nucleotide sequence was introduced, the Arabidopsis thaliana T1 plants (PPO9A) into which the PPO9A nucleotide sequence was introduced, the Arabidopsis thaliana T1 plants (PPO10A) into which the […] nucleotide sequence was introduced, the Arabidopsis thaliana T1 plants (PPO11A) into which the PPO11A nucleotide sequence was introduced, the Arabidopsis thaliana T1 plants (PPO12A) into which the PPO12A nucleotide sequence was introduced, the Arabidopsis thaliana T1 plants (PPO13A) into which the PPO13A nucleotide sequence was introduced, the Arabidopsis thaliana T1 plants (PPO14A) into which the PPO14A nucleotide sequence was introduced, the Arabidopsis thaliana T1 plants (PPO-ATA) into which the PPO-ATA nucleotide sequence was introduced, the Arabidopsis thaliana T1 plants (PPO-APA) into which the PPO-APA nucleotide sequence was introduced, the Arabidopsis thaliana T1 plants (control vector) into which the control vector was introduced, and the wild-type Arabidopsis thaliana plants (CK) (with 24 plants being included in each genotype) (18 days after sowing) were sprayed with oxyfluorfen at three concentrations (180 g ai/ha (one-fold field concentration, 1×), 720 g ai/ha (four-fold field concentration, 4×), and 0 g ai/ha (water, 0×)), saflufenacil at three concentrations (25 g ai/ha (one-fold field concentration, 1×), 100 g ai/ha (four-fold field concentration, 4×), and 0 g ai/ha (water, 0×)), flumioxazin at three concentrations (60 g ai/ha (one-fold field concentration, 1×), 240 g ai/ha (four-fold field concentration, 4×), and 0 g ai/ha (water, 0×), and sulfentrazone at three concentrations (450 g ai/ha (one-fold field concentration, 1×), 900 g ai/ha (two-fold field concentration, 2×), and 0 g ai/ha (water, 0×) to determine the tolerance of Arabidopsis thaliana to the herbicides. After 7 days of spraying (7 DAT), the damage level of each plant caused by the herbicide was evaluated according to the average of the damage levels (%) of plants (the average of the damage levels (%) of plants=the injured leaf area/the total leaf area×[…]), i.e., the grade of pesticide damage: grade 0 means that the growth status of plants is essentially consistent with those sprayed with the blank solvent (water); grade 1 means that the average of the damage levels of plants is less than 10%; grade 2 means that the average of the damage levels of plants is greater than […]; and grade 3 means that the average of the damage levels of plants is 100%. The plants having a growth status falling within grades 0 and 1 are classified as highly resistant plants; those having a growth status falling within grade 2 are classified as poorly resistant plants; and those having a growth status falling within grade 3 are classified as non-resistant plants.

[2] = tested on: Arabidopsis thaliana T1 plants; test: sulfentrazone tolerance of transgenic Arabidopsis thaliana T1 plants (spray, grade of pesticide damage); details: 7 DAT, number of plants of 24 per genotype, grades
From the text: as §1

[3] = tested on: Arabidopsis thaliana T1 plants; test: flumioxazin tolerance of transgenic Arabidopsis thaliana T1 plants (spray, grade of pesticide damage); details: 7 DAT, number of plants of 24 per genotype, grades
From the text: as §1

[4] = tested on: Arabidopsis thaliana T1 plants; test: oxyfluorfen tolerance of transgenic Arabidopsis thaliana T1 plants (spray, grade of pesticide damage); details: 7 DAT, number of plants of 24 per genotype, grades
From the text: as §1

[5] = saflufenacil at four-fold field concentration, of 24 plants

B1: PPO8A: nucleotide sequence encoding microbial protoporphyrinogen oxidase PPO8 (SEQ ID NO:8), Arabidopsis thaliana/soybean common codon usage bias (nucleic acid)
DNA: ATGTCAAATGAGACACAAGCCAAACAAGCTGAAACGAAACAGACTGAGTCTTCTGTCGTAAGCAAAACGCTGGTGTTGTACTCGTCCGTCGATGGTCAAACCTTAAAGATCATTAATCGTATTAAGCAGACCCTGACAGGAGAAGTTATTGTTTTGAATGTTGATGATAATCCAACTATCGATTTTAGCCTTTATCAGAAGGTCTTGATTGGAGCATCAATCCGGTATGGGAACTTTAGACCGAACATCATAAAGTTTGTTAATCAGCATAAAACACAACTTGACGCGGTGTGCAACGCTTTCTTCGTGGTTTGTCTCACAGCAAGAAAACCAGAGAAAGCTGTTCCTGAAAACAATGCATACATGAAGAAATTTGATCAGCTAAGTCAATGGCAACCTCAGTTCAAGGGAGTATTCGCGGGTGCTTTATTGTATTCACGATACAACTGGTGGCAGACACTTCTCATACAACTAATAATGAAGATGACTGGTGGCAGTACTGACAAAACTCAAGATATTGAGCTTACCGATTGGGAAAAGGTGGATTCTTTCGCACAAGACTTTGCTGCCAGGTGA
modifications: The nucleotide sequence of PPO8A
The grade of pesticide damage/plant: grade 0 ([1]; saflufenacil 25 g ai/ha (1×)): 24 plant | The grade of pesticide damage/plant: grade 1 ([1]; saflufenacil 25 g ai/ha (1×)): 0 plant | The grade of pesticide damage/plant: grade 2 ([1]; saflufenacil 25 g ai/ha (1×)): 0 plant | The grade of pesticide damage/plant: grade 3 ([1]; saflufenacil 25 g ai/ha (1×)): 0 plant | The grade of pesticide damage/plant: grade 0 ([1]; saflufenacil 100 g ai/ha (4×)): 8 plant | The grade of pesticide damage/plant: grade 1 ([1]; saflufenacil 100 g ai/ha (4×)): 14 plant | The grade of pesticide damage/plant: grade 2 ([1]; saflufenacil 100 g ai/ha (4×)): 2 plant | The grade of pesticide damage/plant: grade 3 ([1]; saflufenacil 100 g ai/ha (4×)): 0 plant | plants that exhibited high-resistant tolerance [1, 5]: 22 plants | plants that exhibited moderate- or poor-resistant tolerance [1, 5]: 2 plants | The grade of pesticide: grade 0 ([2]; sulfentrazone 450 g ai/ha (1×)): 24 | The grade of pesticide: grade 1 ([2]; sulfentrazone 450 g ai/ha (1×)): 0 | The grade of pesticide: grade 2 ([2]; sulfentrazone 450 g ai/ha (1×)): 0 | The grade of pesticide: grade 3 ([2]; sulfentrazone 450 g ai/ha (1×)): 0 | The grade of pesticide: grade 0 ([2]; sulfentrazone 900 g ai/ha (2×)): 22 | The grade of pesticide: grade 1 ([2]; sulfentrazone 900 g ai/ha (2×)): 2 | The grade of pesticide: grade 2 ([2]; sulfentrazone 900 g ai/ha (2×)): 0 | The grade of pesticide: grade 3 ([2]; sulfentrazone 900 g ai/ha (2×)): 0 | The grade of pesticide damage/plant: grade 0 ([3]; flumioxazin 60 g ai/ha (1×)): 24 plant | The grade of pesticide damage/plant: grade 1 ([3]; flumioxazin 60 g ai/ha (1×)): 0 plant | The grade of pesticide damage/plant: grade 2 ([3]; flumioxazin 60 g ai/ha (1×)): 0 plant | The grade of pesticide damage/plant: grade 3 ([3]; flumioxazin 60 g ai/ha (1×)): 0 plant | The grade of pesticide damage/plant: grade 0 ([3]; flumioxazin 240 g ai/ha (4×)): 23 plant | The grade of pesticide damage/plant: grade 1 ([3]; flumioxazin 240 g ai/ha (4×)): 1 plant | The grade of pesticide damage/plant: grade 2 ([3]; flumioxazin 240 g ai/ha (4×)): 0 plant | The grade of pesticide damage/plant: grade 3 ([3]; flumioxazin 240 g ai/ha (4×)): 0 plant | The grade of pesticide damage/plant: grade 0 ([4]; oxyfluorfen 180 g ai/ha (1×)): 24 plant | The grade of pesticide damage/plant: grade 1 ([4]; oxyfluorfen 180 g ai/ha (1×)): 0 plant | The grade of pesticide damage/plant: grade 2 ([4]; oxyfluorfen 180 g ai/ha (1×)): 0 plant | The grade of pesticide damage/plant: grade 3 ([4]; oxyfluorfen 180 g ai/ha (1×)): 0 plant | The grade of pesticide damage/plant: grade 0 ([4]; oxyfluorfen 720 g ai/ha (4×)): 20 plant | The grade of pesticide damage/plant: grade 1 ([4]; oxyfluorfen 720 g ai/ha (4×)): 4 plant | The grade of pesticide damage/plant: grade 2 ([4]; oxyfluorfen 720 g ai/ha (4×)): 0 plant | The grade of pesticide damage/plant: grade 3 ([4]; oxyfluorfen 720 g ai/ha (4×)): 0 plant

B2: PPO2A: nucleotide sequence encoding microbial protoporphyrinogen oxidase PPO2 (SEQ ID NO:2), Arabidopsis thaliana/soybean common codon usage bias (nucleic acid)
DNA: ATGAGAGCCTTGCTTCTCTACAGCAGTCAAGAAGGGCAGACAAGAAAAATCATTCAGAGAATAGCAGCTCAAATGCCTGAGTACACTTGTGAAGTTCAAGATTTGCATCAATCAATAGATATTGATTGGGCCGAGTATGACAAAGTTTTAATTGGTGCATCCATCCGGTATGGACGTTTGAACCCTGCACTTTACAGGTTCATTGAGCATCACCTCGTTGGTTTGACCTCAAGGAAGGCTGCTTTCTTCTGCGTAAATCTTACCGCAAGGAAAGAACAACAAGGGAAAGACACTCCACAGGGCTCTGCATATATTCAAACATTTTTGAAGAAGAGTGCTTGGCAACCCGAAAGGATTGCTGTTTTTGCTGGTGCCCTTTATTATCCAAGATACAGATGGTTTGATAAGATGATGATCCGACTCATCATGACGTTAACTGGAGGAGAAACTGATACATCTCAGGAGGTGGAATATACAAACTGGGATAAAGTCGTGAAGTTTGCAGAGCAGTTTCGGAATTGGTGA
modifications: PPO2A Nucleotide Sequence
The grade of pesticide damage/plant: grade 0 ([1]; saflufenacil 25 g ai/ha (1×)): 24 plant | The grade of pesticide damage/plant: grade 1 ([1]; saflufenacil 25 g ai/ha (1×)): 0 plant | The grade of pesticide damage/plant: grade 2 ([1]; saflufenacil 25 g ai/ha (1×)): 0 plant | The grade of pesticide damage/plant: grade 3 ([1]; saflufenacil 25 g ai/ha (1×)): 0 plant | The grade of pesticide damage/plant: grade 0 ([1]; saflufenacil 100 g ai/ha (4×)): 6 plant | The grade of pesticide damage/plant: grade 1 ([1]; saflufenacil 100 g ai/ha (4×)): 18 plant | The grade of pesticide damage/plant: grade 2 ([1]; saflufenacil 100 g ai/ha (4×)): 0 plant | The grade of pesticide damage/plant: grade 3 ([1]; saflufenacil 100 g ai/ha (4×)): 0 plant | The grade of pesticide: grade 0 ([2]; sulfentrazone 450 g ai/ha (1×)): 24 | The grade of pesticide: grade 1 ([2]; sulfentrazone 450 g ai/ha (1×)): 0 | The grade of pesticide: grade 2 ([2]; sulfentrazone 450 g ai/ha (1×)): 0 | The grade of pesticide: grade 3 ([2]; sulfentrazone 450 g ai/ha (1×)): 0 | The grade of pesticide: grade 0 ([2]; sulfentrazone 900 g ai/ha (2×)): 20 | The grade of pesticide: grade 1 ([2]; sulfentrazone 900 g ai/ha (2×)): 4 | The grade of pesticide: grade 2 ([2]; sulfentrazone 900 g ai/ha (2×)): 0 | The grade of pesticide: grade 3 ([2]; sulfentrazone 900 g ai/ha (2×)): 0 | The grade of pesticide damage/plant: grade 0 ([3]; flumioxazin 60 g ai/ha (1×)): 24 plant | The grade of pesticide damage/plant: grade 1 ([3]; flumioxazin 60 g ai/ha (1×)): 0 plant | The grade of pesticide damage/plant: grade 2 ([3]; flumioxazin 60 g ai/ha (1×)): 0 plant | The grade of pesticide damage/plant: grade 3 ([3]; flumioxazin 60 g ai/ha (1×)): 0 plant | The grade of pesticide damage/plant: grade 0 ([3]; flumioxazin 240 g ai/ha (4×)): 24 plant | The grade of pesticide damage/plant: grade 1 ([3]; flumioxazin 240 g ai/ha (4×)): 0 plant | The grade of pesticide damage/plant: grade 2 ([3]; flumioxazin 240 g ai/ha (4×)): 0 plant | The grade of pesticide damage/plant: grade 3 ([3]; flumioxazin 240 g ai/ha (4×)): 0 plant | The grade of pesticide damage/plant: grade 0 ([4]; oxyfluorfen 180 g ai/ha (1×)): 24 plant | The grade of pesticide damage/plant: grade 1 ([4]; oxyfluorfen 180 g ai/ha (1×)): 0 plant | The grade of pesticide damage/plant: grade 2 ([4]; oxyfluorfen 180 g ai/ha (1×)): 0 plant | The grade of pesticide damage/plant: grade 3 ([4]; oxyfluorfen 180 g ai/ha (1×)): 0 plant | The grade of pesticide damage/plant: grade 0 ([4]; oxyfluorfen 720 g ai/ha (4×)): 20 plant | The grade of pesticide damage/plant: grade 1 ([4]; oxyfluorfen 720 g ai/ha (4×)): 4 plant | The grade of pesticide damage/plant: grade 2 ([4]; oxyfluorfen 720 g ai/ha (4×)): 0 plant | The grade of pesticide damage/plant: grade 3 ([4]; oxyfluorfen 720 g ai/ha (4×)): 0 plant
